Experimental data published in patent US20140289906A1, “Compositions Having Dicamba Decarboxylase Activity and Methods of Use” (priority 2013, published 2014).

Experiment: 14C assay: 14CO2 capture from [14C]-carboxyl-labeled dicamba with IPTG-induced recombinant E. coli cells
Conditions: for Dicamba Decarboxylase Activity: IPTG-induced recombinant E. coli cells, 14CO2 from [14C]-carboxyl-labeled dicamba; for Enzymatic Detection level: dicamba decarboxylation activity

Molecule | Dicamba Decarboxylase Activity | Enzymatic Detection level
45 (protein, Mycobacterium sp) MANDDLAEVIAAHPDRFAGFAALPMRDPQAAAVELQRAVGTHGFCGAMINGLIEGRFLDDPAFAPLLSTAADLGVPLYLHPSFPPPQVAEIYFGGLAPVLGDLLATAGWGWHAETALHVLRLVATGVFDRLPELWVIVGHMGEMIPFALARIDTVLSPVAQLRQPVAQYFQTNVWFTTSGYTTFPPLQCALSTVGIDRLIFSVDYPYTDNTSARALLDTAPISPVDREKLAHGTVEALLRV | No | No
59 (protein, alpha proteobacterium) MAPSVIDAHAHFLPGSLVTALRSRSDAPDIRTDSNGGESFGIYRTRMPYGRTYDALDVRLARMDELGVDRQILSLPGLFGIDSRPVSQALPLVRAFNDGVADLVRKHPDRFSGIAALPLADLDAAQEEYRRARGDLGLSGLILPGDTFVSVAAAERVRPLFELAATIGGLIFVHPGPLPDETGSAVDAPAPHTDSVVHRRVTVDIQNRMTEVMVTLALTDFLAPYPSVPVQVANLGGSLPFVIERMDHVYALRNPEAPPPSLSLRSLYVDAASLGPRAIALAAEVYGADRVLFGSDYPIFDDGRCLDAVRQTRLSPDARALIAGGNAARMLTQT | No | No
60 (protein, listed as Catenulispora acidiphila) MARGFVRTAVVPGFWDAGWRGAGQPGGMRVDVHAHLFPAAYLDLLDDFRQDGGVGTREVRALGGGDGERELRLRLAAMDAVGVDVQLLSTCPQGPYTGDPTAAVEAARCANVALAQTVAQYPERLRALAALPLPHILASVDELNRAMEQDGMLGAAVGTSILGRPLSHPDFEPLFAALNRRKGVLFVHPIGESAGSPLMQASKLDRVIGYAAEVSTAILQLFQAGLTVKYPDIRIIAPHMGGYLPFLIQRLDRHRDWYLPKDAPSAGQLMRGIAYDTANPLPAALRLTAEVVGPERLLLGTDYPFEQGPSLRDHIEYILAAGLPEAQAKMIVDVNAADFLDMRSGAEQPPV | No | No
61 (protein, listed as Gordonia amarae) MATGAGSGVPSPADRVIVRSPGVIDVHAHAVLPMSLGCAGAAGPEIGYREDGSPFFRVGEYVLNGVRYEGSAFMDPEVRVAAMDAAGIGLQMISPNPITYFTRLDARSATDYARAHNDAIAEAAGRHPGRLVGAAQLPMQDVPAAIAELERSVRELGLVAAYIDTDIGDRTLDAPELDDFYSAAVELDVPVFIHPSPVGQEGPPDDTRLRRFDLDLLLGFSYDETLAVAALVFGGVLERHPALDVCLSHGGGTLAFVAGRFARAVAKPRAWVPEFLVENGIESYLRRLWLDTHVHSAGSLRLLIDTVGTDRLVFGTNFAGWDADGATEVDALGDLRETTTANAAHLLRLGRA | No | No
62 (protein, Bacillus thuringiensis serovar pulsiensis) MAVGGKNFRDVTDQVWCPKKRIEDMDREGVDIQVLSPIPVTFSYWAKPEEAESMARIQNDFIAETVLAYPDRFVGLGTVPMQDGETAIREMERCITELNLHGIEIGTNVNGKNLDDPSFIEFFRMAEKWQVPIFIHPWETLGRDRMPHHNFMYTVGMPSETALAAATLIWSGIMEKFPRLKVCFAHGGGSFPYILPRLDQGWKVWPHLRLTTHPPSYYAKKFYFDSLNYDPINLKYMIERFGHEKIFMGSDYPFLLREVDPGKVIDETASLSEEQKAAMLGGNAAEFLNIDIKKRGVAYAESTNT | No | No
64 (protein, listed as Achromobacter piechaudii) MAIQKIDMHAHFFPPITRQEAAALDPVNAPWLRPDADGATGQIMAGEREFRPVDATLWDPALRIEQMDRHGVDVQILCATPIMFGYTYPARPAADWAARMNDLALEHCAYAPSRLKALAQVPLQDLELACQEASRARAAGHLGVQIGNHVGPRDLDDETLVQFLIHCANNDIPVLVHPWDMMTDGRMKKWMLPWLVSMPAETQLGILSLILSGAFERIPRSLKLCFAHGGGSFAYLLGRVDNAWRHRDIIRQDCPQLPSSYTDRFYTDSAVFDPRSLRLLIDVMGEDRVLLGSDYPYPLGEQEVGRLVAHAELVPEVQQKILFRNTMTFFGLQPGLQPGLQS | Low | Low
68 (protein, listed as Hoeflea phototrophica) MAIIDAHTHTLCPAVNEKVAGTIKPDSVPYQRDMSPESKEQDHTQFPELKIMFNQVERRLADMARMGIDRQVIAPAPGQQHYWAEPKLLAEISALQNDHVAELVARAPDRFAGIGTLPMTDPDAAVAEITRATRELGLRVFQIDSRVMERELSDASLDPIYAALEAAGAGLMIHPLGFSNGERLTPFFMVNSVAQPLEELLAFNHLVFGGVLDRFPKLKVYIAHGGGFAPFYIGRFDHAWKVRPEVNRLTPSAPSTYLRRIYFDTCVYRTDHIETLVRTVGADRVMLGSDYPFDMGDTDPLGLLNACQGLSDDEKATISSKVAIDFFGLET | No | No
69 (protein, listed as Microbacterium testaceum) MATSTEGQDVTDVHAHLLMPGLHAEVERRVPDEVQAAADLELRRNGLASLQASGRMIGERFPRLTDVRARLAAMDEQGVDRQWVSPSPNHFYPWANEGLATWASGEANRLIAEHVALAPDRLVGLGVVPLQHPHLVVDALDDAVLGRGLAGVEISSFAGDVELSDERLESFWARAAELRAVVFLHPFGCSLDERLDRFYLSNTVGQPTENAVALSHLIFSGVLDRHPGLRLIAAHGGGYLPTAIGRSDRAWRVRPEARGCAHAPSTYLSKLWFDTVVHDERALRWLVEAAGADRVLLGSDFPFDMGLDDPVAFVRGAGLQDAEVSGILGGNAAELLRTRVHA | No | No
70 (protein, listed as Alicyclobacillus acidocaldarius) MAIEPNRAADVHTHFLPTEVLEFLKREPRIQVDLERRAPDKEPFLTVEGRWSFELKRMFVDFEAFASAYRQAGIGLALVSPLPQLFVYHLPAEMGAQVAEVYNDALRDVLAPHRERFRPLATLPLADPTAAARELERRMDEGFVGAIVGPGVGEALIGDEAFWPLWEVADARRAVLFLHPLLHADPRAARLMLPNLVGVPWETTLAAAHLVLSGLLDRYPGARVLLAHGGGFLPYQIGRIEQGYDVWPQVRGRLQDRPTAYLRRMFYDNVLWSDAALRCLIDVVGADRVLAGSDFPFDLSAWPPRPGADVSVLAGGSGREGRLS | Low | Low
71 (protein, listed as Burkholderia dolosa) MARAGHRAARTRQSRPGDRTMTCSCCMSAGRRRVLGAFAALAGAPKGPRAASAAQPAAASKPTRGDATARNRHSRALLPGKASASWSATKASGSGGAFAWDDTTFTFRTPAGGLGPLPMKFIDVDARLRDMDASGVDVQALSLSVPMAYWGDRPFNAKLARAWNTAASRVHVRAPDRFVVLATLPMLDATDAIDELERASELPGVRGVYMGTNIDNRDLDDPRFAPVFARIEQLGLPVFLHPQQTVGGARLGDFYLSNLLGNPFDTAIAASHLILGGVLDRHPALHFTLPHAGGALPILVGRLDAGWTVRAETRRLAHQPSGYLRRFSYDTVSHSGPVLNFLIENVGIDRLVLGSDYCFDMGYEQPVRFLDRLDLTPDERAMVIGGNAGRLLRI | Low | Low
72 (protein, Cupriavidus necator) MADCPCCVSPKRRRLLGSVSAIAAGMMAGLPALAAQPSTAAAGTGKPLSIDIHAHYYSESFLGLLGGEGKQFGGHFFRNDDSFTFQTPAGGLGPLPMKFIDVEQRVRDMDNSGVDVQAISLSVPMVYWADRTLNAKLARAWNTAASDVHRKHPTRFVVLATLPMLNANDAIDELEFAAGLPGVRGIYMGTNINNRDLDDPLFSPIFKRIEQLNLPIFLHPQQTVGGARLADFYLSNLLGNPFDTAIAASHLILGGVLDKYPALHFSLPHAGGALPILVGRIDAGWSMRSETKRVAQKPSSYLRRFSYDTISHSGPTLDFLIRNIGADRLVLGSDYCFDMGYEQPVRFLDRLALPDDQKRMVVGGNAARLLNL | Low | Low
73 (protein, listed as Sphaerobacter thermophilus) MARIDAHAHAQPPEYLDALLASGRYESVRDAEGRIVVRERGSRFLTITPQMHHPEQRVAEMDEAGIDMQILSVTTPQVYFLQGQAAVDLARRCNDYLADIVRSYPTRFRALASVPLTADPDAAVREFVRCLDDLGMVGAIIGSNIDGRPIDDPAFDAFYAEADRRATTLFIHPMVPAGIEVMNPYALAPLVGFMFDTTLAVSRLIFSGFFERYPRVKVLVGHLGAAVPYLAGRLDIGWRSYSDCQGIPHPPTEYIRRLYLDTVSFHAPALRCALETVGPDRIVFGSDYPHVIGDVGGAIASIQQALPATTHDGVLGHTAAELFGVSA | Low | Low
74 (protein, listed as Ramlibacter tataouinensis) MATVIDVHTHMFTTKWLELLKKEGGQYNIQTRPDGQQEIFRGNTPVVIPQKGHFDWKLRIQHMDQAGIDVSVVSLTCPNVYWGGEDVSVRAAREANDNVAQAQTAYPDRIRWFASLPWEYMATVIDVHTHMFTTKWLELLKKEGGQYNIQTRPDGQQEIFRGNTPVVIPQKGHFDWKLRIQHMDQAGIDVSVVSLTCPNVYWGGEDVSVRAAREANDNVAQAQTAYPDRIRWFASLPWEYPQRAVEELERSCAQGAAGVMVLANVAGRSLTDPLFAPVWAEIDRRALPVLVHPTDPPGVDLMDMTKFDLSWSVGFMFDTTLAITRMIFEGFFDRYPNLRIIASHGGGTLPYLVGRFEKGDEVELASRRQMKRKPTDYLRHIHYDCITYNLGALQYLISVVGAGQVMFGTDWPHWVHDTRGAFANTAQLPQEQTRAVRGANAQRLFKL | Low | Low
75 (protein, listed as Ectocarpus siliculosus) MAKIDSYTHFACPAFMDHLEAESGHPMVFRGLFSSIPELSDIDLRIRYMDEHGIDVHCLVPLPWLECEPGLHADEGKALEACRIANDEMARVVARFPDRLIGVALIPTTTEQAMIQETTRAVKELGMAGVALFVGPTAKPPDMACFEGLYRTCEELGAVVWMHPCRPQSYADYDSYKGEGSKHQIWNTFGWIYDTSVAMVHIALAGVFRRYPGLKVVTHHHGAMVPFFTARFDTQRRNFQEVEGDDLLEDLRLFYCDTATFGESAANIQQAIDFFGKSQVLFGTDTPMDMGTRGMFTRTTIASVEALGAAPEDKESFYAGNVLDMLGERFAGISGARGAVAARPKGDSTRIAASL | Low | Low
